Source: publication PMC4971460

Target: MBP-GS fusion construct Δ2 (not stated | E. coli) [MBP: P0AEX9]
Experiment: cryo-EM structure

“MBP-GS fusion construct Δ2 (from UniProt P0AEX9 27-396; P0A9C5 3-469)” was tested, and the stoichiometry N was 12.
